Data: US20200283521A1 (GRANULAR THERAPEUTICS, published 2020)

Key:
hVCAM-1 = target: T1, hVCAM-1 (human, UniProt P19320); assay: direct ELISA on coated protein, IgG1
T1 construct: purified recombinant protein; member of the panel m9
T1 sequence (looked up): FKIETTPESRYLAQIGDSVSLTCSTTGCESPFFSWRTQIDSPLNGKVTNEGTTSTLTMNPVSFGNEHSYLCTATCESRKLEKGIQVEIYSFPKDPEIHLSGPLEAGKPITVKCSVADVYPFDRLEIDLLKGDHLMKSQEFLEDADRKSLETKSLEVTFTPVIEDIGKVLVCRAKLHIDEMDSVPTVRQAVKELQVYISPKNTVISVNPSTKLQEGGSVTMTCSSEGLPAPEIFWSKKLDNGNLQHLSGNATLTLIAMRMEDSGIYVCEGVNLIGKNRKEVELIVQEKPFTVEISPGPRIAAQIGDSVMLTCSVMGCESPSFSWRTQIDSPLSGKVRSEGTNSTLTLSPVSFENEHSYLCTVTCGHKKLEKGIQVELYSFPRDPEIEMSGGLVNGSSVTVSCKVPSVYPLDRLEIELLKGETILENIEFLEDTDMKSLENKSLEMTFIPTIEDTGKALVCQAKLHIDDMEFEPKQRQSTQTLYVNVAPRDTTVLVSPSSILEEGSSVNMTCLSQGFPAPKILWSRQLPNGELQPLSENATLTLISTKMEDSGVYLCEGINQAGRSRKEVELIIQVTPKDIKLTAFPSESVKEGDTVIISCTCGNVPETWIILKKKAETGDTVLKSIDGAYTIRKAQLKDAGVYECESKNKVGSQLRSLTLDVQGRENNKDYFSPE

hEpCAM-Fc = target: T2, hEpCAM-Fc (human, UniProt P16422); assay: direct ELISA on coated protein, IgG1
T2 construct: Fc fusion; member of the panel m9
T2 sequence (looked up): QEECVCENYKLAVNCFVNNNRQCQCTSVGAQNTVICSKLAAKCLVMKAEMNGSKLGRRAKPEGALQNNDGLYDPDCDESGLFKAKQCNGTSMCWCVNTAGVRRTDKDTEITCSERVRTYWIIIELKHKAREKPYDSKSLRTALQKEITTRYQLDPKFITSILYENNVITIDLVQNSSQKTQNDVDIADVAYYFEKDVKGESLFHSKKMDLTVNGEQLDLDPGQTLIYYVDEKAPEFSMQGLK

h4-1BB-Fc = target: T3, h4-1BB-Fc; assay: direct ELISA on coated protein, IgG1
T3 construct: member of the panel m9

hBAFFR-Fc = target: T4, hBAFFR-Fc (human, UniProt Q96RJ3); assay: direct ELISA on coated protein, IgG1
T4 construct: Fc fusion; member of the panel m9

hVCAM-Fc = target: T5, hVCAM-Fc; assay: direct ELISA on coated protein, IgG1
T5 construct: member of the panel m9
T5 chain: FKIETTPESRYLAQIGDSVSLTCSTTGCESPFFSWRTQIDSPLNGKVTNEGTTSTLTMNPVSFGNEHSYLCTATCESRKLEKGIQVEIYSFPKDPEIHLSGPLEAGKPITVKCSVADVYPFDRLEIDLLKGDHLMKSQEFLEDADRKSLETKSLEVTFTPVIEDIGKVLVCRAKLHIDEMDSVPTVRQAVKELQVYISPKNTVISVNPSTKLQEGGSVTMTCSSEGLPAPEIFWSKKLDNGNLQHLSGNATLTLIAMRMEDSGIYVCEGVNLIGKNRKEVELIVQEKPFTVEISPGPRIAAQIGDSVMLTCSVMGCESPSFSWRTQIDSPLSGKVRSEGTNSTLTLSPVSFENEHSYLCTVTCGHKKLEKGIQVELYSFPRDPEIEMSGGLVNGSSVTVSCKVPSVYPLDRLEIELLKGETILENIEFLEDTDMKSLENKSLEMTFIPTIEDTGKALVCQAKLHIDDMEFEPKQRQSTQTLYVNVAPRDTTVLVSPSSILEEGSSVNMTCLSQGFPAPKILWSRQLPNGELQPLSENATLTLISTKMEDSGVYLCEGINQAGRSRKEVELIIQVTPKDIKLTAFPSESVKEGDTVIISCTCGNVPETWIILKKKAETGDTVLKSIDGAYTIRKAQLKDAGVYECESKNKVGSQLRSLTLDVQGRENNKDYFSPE

hOX40-Fc = target: T6, hOX40-Fc; assay: direct ELISA on coated protein, IgG1
T6 construct: member of the panel m9
T6 chain: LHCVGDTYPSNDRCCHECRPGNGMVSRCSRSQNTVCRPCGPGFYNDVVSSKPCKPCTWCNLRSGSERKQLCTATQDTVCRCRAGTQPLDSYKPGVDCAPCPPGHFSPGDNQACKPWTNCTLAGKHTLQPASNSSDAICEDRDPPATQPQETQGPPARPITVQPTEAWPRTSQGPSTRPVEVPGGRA

hICAM-1-Fc = target: T7, hICAM-1-Fc (human, UniProt P05362); assay: direct ELISA on coated protein, IgG1
T7 construct: Fc fusion; member of the panel m9

MS4A1 = target: T8, MS4A1 (human, UniProt P11836); assay: cell array, transfected fixed HEK293 cells
T8 construct: expressed in transfected HEK293 cells; also called CD20
T8 sequence (looked up): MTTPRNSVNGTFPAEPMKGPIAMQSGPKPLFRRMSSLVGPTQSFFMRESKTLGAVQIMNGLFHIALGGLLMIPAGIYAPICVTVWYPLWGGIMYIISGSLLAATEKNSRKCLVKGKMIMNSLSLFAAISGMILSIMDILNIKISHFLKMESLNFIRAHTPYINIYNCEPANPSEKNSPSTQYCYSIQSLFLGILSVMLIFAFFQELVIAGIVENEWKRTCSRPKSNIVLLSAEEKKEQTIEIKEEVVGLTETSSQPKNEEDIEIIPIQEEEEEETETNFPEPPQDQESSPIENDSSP
Procedure: (§1) Transfection of all plasmids was confirmed by screening for the co-encoded marker ZS green (FIG. 13A).
(§2) Primary hits (duplicate spots) were identified by analysing fluorescence (AF647 and ZsGreenl) on ImageQuant. Vectors encoding all hits were sequenced to confirm their correct identities. […] Slides were analysed as above.

KRT19 = target: T9, KRT19 (human, UniProt P08727); assay: cell array, transfected fixed HEK293 cells
T9 construct: expressed in transfected HEK293 cells
T9 sequence (looked up): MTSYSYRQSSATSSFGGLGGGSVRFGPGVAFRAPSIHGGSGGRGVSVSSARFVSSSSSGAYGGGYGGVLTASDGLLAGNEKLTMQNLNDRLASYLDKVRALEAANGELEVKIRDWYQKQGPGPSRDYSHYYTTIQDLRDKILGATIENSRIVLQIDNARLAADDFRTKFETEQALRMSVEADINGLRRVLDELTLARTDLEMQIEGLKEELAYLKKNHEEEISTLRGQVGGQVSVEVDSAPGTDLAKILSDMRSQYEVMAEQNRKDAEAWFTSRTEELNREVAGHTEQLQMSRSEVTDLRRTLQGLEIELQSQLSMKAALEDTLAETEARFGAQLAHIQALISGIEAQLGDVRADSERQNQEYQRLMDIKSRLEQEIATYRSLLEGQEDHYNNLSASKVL
Procedure: as §1, §2

MSN = target: T10, MSN (human, UniProt P26038); assay: cell array, transfected fixed HEK293 cells
T10 construct: expressed in transfected HEK293 cells
Procedure: as §1, §2

PSAPL1 = target: T11, PSAPL1 (human, UniProt Q6NUJ1); assay: cell array, transfected fixed HEK293 cells
T11 construct: expressed in transfected HEK293 cells
T11 sequence (looked up): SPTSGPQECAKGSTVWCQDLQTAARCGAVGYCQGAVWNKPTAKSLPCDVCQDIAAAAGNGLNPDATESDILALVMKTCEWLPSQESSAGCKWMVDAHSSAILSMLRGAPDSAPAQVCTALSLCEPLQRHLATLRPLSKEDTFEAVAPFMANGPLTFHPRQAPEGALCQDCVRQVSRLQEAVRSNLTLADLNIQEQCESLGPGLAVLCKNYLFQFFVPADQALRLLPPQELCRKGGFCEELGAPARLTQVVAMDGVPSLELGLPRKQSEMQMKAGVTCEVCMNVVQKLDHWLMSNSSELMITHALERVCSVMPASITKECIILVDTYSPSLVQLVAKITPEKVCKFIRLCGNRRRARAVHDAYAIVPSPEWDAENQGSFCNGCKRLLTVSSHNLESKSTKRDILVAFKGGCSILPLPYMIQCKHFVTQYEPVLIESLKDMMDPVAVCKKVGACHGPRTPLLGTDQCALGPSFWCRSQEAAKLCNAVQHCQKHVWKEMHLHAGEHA
Procedure: as §1, §2

T3 sequence (chain, as listed by the source limits assumed): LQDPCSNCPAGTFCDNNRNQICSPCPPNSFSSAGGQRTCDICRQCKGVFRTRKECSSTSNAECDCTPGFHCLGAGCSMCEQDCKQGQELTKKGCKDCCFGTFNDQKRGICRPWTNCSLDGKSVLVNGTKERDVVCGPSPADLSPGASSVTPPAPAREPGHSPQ
T7 sequence (P05362 28-480 limits assumed): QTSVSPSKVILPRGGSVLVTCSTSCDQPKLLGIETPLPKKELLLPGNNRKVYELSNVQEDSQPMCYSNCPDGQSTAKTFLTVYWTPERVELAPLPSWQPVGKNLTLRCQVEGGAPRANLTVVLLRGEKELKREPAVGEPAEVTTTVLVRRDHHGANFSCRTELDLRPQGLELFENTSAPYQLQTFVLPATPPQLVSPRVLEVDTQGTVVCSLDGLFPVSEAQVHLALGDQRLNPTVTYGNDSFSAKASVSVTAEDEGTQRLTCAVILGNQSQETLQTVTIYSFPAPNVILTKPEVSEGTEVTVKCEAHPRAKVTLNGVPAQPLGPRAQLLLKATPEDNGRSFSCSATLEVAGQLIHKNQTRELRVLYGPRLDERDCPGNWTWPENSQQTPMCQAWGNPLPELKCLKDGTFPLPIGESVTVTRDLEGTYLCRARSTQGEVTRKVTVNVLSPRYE
T4 sequence (Q96RJ3 7-71 limits assumed): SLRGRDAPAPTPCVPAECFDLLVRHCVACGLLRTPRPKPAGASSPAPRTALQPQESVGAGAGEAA
T10 sequence (P26038 2-577 limits assumed): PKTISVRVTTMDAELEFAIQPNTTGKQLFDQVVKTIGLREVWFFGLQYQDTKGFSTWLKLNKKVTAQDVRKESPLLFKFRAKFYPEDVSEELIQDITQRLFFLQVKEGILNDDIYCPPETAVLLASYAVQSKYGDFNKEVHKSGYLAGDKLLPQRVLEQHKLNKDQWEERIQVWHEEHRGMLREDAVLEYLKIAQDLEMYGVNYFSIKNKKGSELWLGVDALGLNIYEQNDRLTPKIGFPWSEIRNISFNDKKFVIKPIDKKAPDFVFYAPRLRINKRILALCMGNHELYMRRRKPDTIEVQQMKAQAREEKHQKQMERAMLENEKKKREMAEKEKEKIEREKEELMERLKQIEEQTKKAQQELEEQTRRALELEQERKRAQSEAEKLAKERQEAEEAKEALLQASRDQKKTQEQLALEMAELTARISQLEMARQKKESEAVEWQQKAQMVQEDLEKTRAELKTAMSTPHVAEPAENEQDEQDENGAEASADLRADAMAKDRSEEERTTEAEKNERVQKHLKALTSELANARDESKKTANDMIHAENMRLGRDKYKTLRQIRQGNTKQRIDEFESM

B1: MH1, human IgG1 (antibody, V domains shown)
VH: QVQLVQSGAEVKKPGASVKVSCKASGYTFTDYYMNWVRQAPGQGLEWMGRIYPGSGNTYYAQKFQGRVTMTRDTSTSTVYMELSSLRSEDTAVYYCARGVYYYDYWGQGTLVTVSS
VL: DIQMTQSPSSLSASVGDRVTITCRASQGIRTNLAWFQQKPGKAPKSLIYAASSLQSGVPSRFSGSGSGTDFTLTISSLQPEDFATYYCQQYNSYPRTFGGGTKVEIK
notes: IgG1; also called IgG1-MH1
- binding result (hVCAM-1): no binding (tested: 1 µg/ml)
- binding result (hEpCAM-Fc): no binding (tested: 1 µg/ml)
- binding result (h4-1BB-Fc): no binding (tested: 1 µg/ml)
- binding result (hBAFFR-Fc): no binding (tested: 1 µg/ml)
- binding result (hVCAM-Fc): no binding (tested: 1 µg/ml)
- binding result (hOX40-Fc): no binding (tested: 1 µg/ml)
- binding result (hICAM-1-Fc): no binding (tested: 1 µg/ml)
- binding result (MS4A1): no binding (tested: 2 µg/ml)
- binding result (KRT19): no binding (tested: 2 µg/ml)
- binding result (MSN): no binding (tested: 2 µg/ml)
- binding result (PSAPL1): no binding (tested: 2 µg/ml)
